The source of these data is patent publication US20260015423A1 (STAIDSON BIOPHARMA, published 2026).

In general, Kd refers to the equilibrium constant for the complex coming apart. A higher Kd goes with lower affinity. In general, koff refers to a measure of how fast the partners let go of each other. The kon is the second-order rate constant of association. A high value points to faster complex formation.

Read-outs that look alike come from different tables or passages of the source.

The target in assay [1] is human PD-L1 on cells (Raji cell line expressing human PD-L1; human PBMCs) (human, UniProt Q9NZQ7 19-290). Briefly: cell-based or functional assay.
The target of assay [2] is T1, human PD-L1 (Sino biological, 10084-H08H) (human, UniProt Q9NZQ7 19-238).
T1 construct: Bought recombinant protein used as analyte in BLI
Briefly: BLI (Octet Red), antibody captured on anti-human Fc sensors, human PD-L1 as analyte. A general note: BLI is a label-free optical method that tracks binding on a fibre tip over time.

Assay [3] concerns the target T1, human PD-L1 (Sino biological, …). The assay is described as above. This is another data set of the same source.
The target of assay [4] is T2, cynomolgus PD-L1 (Sino biological, 90251-C08H) (cynomolgus, UniProt G7PSE7 19-238).
T2 construct: Bought recombinant protein used as analyte in BLI; not shown: C-terminal polyhistidine tag of the bought product (Sino Biological 90251-C08H)
As to the kind of experiment: BLI (Octet Red), antibody captured on anti-human Fc sensors, cynomolgus PD-L1 as analyte.

The target of assay [5] is T3, Europium-conjugated human PD-L1 (human, UniProt Q9NZQ7 19-238, limits assumed, Europium conjugate (site not stated)).
T3 construct: also called Europium-human PD-L1; PD-L1 (HTRF donor protein)
As to the kind of experiment: HTRF blocking assay: Europium-human PD-L1 with Alexa-647 human PD-1 as the blocked ligand, antibody titrated. (In general: In TR-FRET formats the signal depends on donor and acceptor labels being close together.)

Assay [6] addresses T1, human PD-L1 (Sino biological, …). Briefly: BLI (Octet Red), antibody captured on anti-human Fc sensors, human PD-L1 as analyte; Table 8 run, alongside humanized Hum-5/6/7.
Assay [7] concerns the target T3, Europium-conjugated human PD-L1. Briefly: HTRF competition assay: Europium-human PD-L1 with Alexa-647-conjugated Mab 3-16 as competitor, unlabelled Mab 3-16 titrated.
Assay [8] shares this target. The description is as above. This is another data set of the same source.
Assay [9] shares this target. As to the kind of experiment: HTRF competition assay: Europium-human PD-L1 with Alexa-647-conjugated Mab 3-16 as competitor, unlabelled antibody titrated.
Assay [10] has the same target. As to the kind of experiment: HTRF blocking assay: Europium-human PD-L1 with Alexa-647 human PD-1 as the blocked ligand, antibody titrated. This is another data set of the same source.

T3 sequence (Q9NZQ7 19-238 limits assumed): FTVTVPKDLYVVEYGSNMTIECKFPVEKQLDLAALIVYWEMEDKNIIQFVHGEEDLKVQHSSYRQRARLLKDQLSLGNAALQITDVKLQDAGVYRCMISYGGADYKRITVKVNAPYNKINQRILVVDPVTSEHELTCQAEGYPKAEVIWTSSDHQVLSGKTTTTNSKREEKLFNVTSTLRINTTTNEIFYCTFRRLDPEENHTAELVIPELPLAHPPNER
T1 sequence (Q9NZQ7 19-238 limits assumed): as above
T2 sequence (G7PSE7 entry or part of it C08H C08H limits assumed): as the sequence (Q9NZQ7 19-238 limits assumed) above, with A33T, A34S, S62N, R68Q, Q82R, F173L, T185A, T192I, H215L counted along it
human PD-L1 on cells (Raji cell line expressing human PD-L1; human PBMCs), sequence (Q9NZQ7 19-290): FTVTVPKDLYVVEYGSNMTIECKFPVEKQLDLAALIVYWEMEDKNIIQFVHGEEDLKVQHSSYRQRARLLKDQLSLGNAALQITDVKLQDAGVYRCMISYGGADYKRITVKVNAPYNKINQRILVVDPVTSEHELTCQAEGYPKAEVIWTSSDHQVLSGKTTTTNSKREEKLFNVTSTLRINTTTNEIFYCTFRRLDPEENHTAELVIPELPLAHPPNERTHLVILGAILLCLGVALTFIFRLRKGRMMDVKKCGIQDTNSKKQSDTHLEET

B1: chimeric anti-human PD-L1 antibody Mab 3-16 (antibody, human IgG1, kappa, V domains shown)
VH: DVQLVESGGGLVQPGGSRKLSCAASGFTFGGFGMHWVRQAPEKGLEWVAYITGDSSTIYYADRVRGRFTISRDNPRNILFLQMTSLGSEDTAMYYCVRGPPGTWAYWGQGTLVTVSA
VL: DIVLTQSPASLAVSLGQRATFSCRASESVEFYGTTLVQWYQQRPGQPPKLLIYGASNVESGVPARFTGSGSGTDFSLNIHPVEEDDIAMYFCQQIRKVPWTFGGGTKLEIRR
notes: Mouse variable domains on human IgG1 / kappa constant regions; also called parent antibody Mab 3-16
On to B1, for which the “EC50(nM), IL-2 production by SEB stimulated human PBMCs” value in [1] worked out at 5.41 nM. Besides, the values for the Kd in assay [2], in [4] and in assay [6] were 0.146 nM, 0.863 nM and < 0.001 nM, respectively. The koff was found to be 6.17e-05 s⁻¹ in assay [2], 1.19e-07 s⁻¹ in assay [3] and 8.34e-05 s⁻¹ in assay [4]. Moreover, the values for the kon in assay [2], in [3] and in assay [4] were 423000 M⁻¹ s⁻¹, 286000 M⁻¹ s⁻¹ and 96700 M⁻¹ s⁻¹, respectively. The “IC50 (read off the curve)” value in assay [5], in assay [7] and in assay [8] was ~0.2 µg/mL throughout.

B2: humanized anti-human PD-L1 antibody Hum-5 (antibody, human IgG1, kappa, V domains shown)
VH: EVQLVESGGGLVQPGGSLRLSCAASGFTFGGFGMHWVRQAPGKGLEWVSYITGDSSTIYYADRVRGRFTISRDNAKNSLYLQMNSLRAEDTAVYYCVRGPPGTWAYWGQGTLVTVSS
VL: EIVLTQSPATLSLSPGERATLSCRASESVEFYGTTLVQWYQQKPGQAPRLLIYGASNVESGIPARFSGSGSGTDFTLTISSLEPEDFAVYYCQQIRKVPWTFGQGTKVEIKR
With B2, in assay [3], the affinity, expressed as Kd, was 0.126 nM; the koff stood at 3.92e-05 s⁻¹; the kon worked out at 310000 M⁻¹ s⁻¹. For the same molecule, in [4], the Kd came to 0.915 nM, the koff was 8.65e-05 s⁻¹ and the kon was found to be 94500 M⁻¹ s⁻¹. In addition, the “IC50 (read off the curve)” value in assay [9] is ~0.1 µg/mL.

B3: humanized anti-human PD-L1 antibody Hum-6 (antibody, human IgG1, kappa, V domains shown)
VH: EVQLVESGGGLVQPGGSLRLSCAASGFTFGGFGMHWVRQAPGKGLEWVSYITGDSSTIYYADRVRGRFTISRDNAKNSLYLQMNSLRAEDTAVYYCVRGPPGTWAYWGQGTLVTVSS
VL: EIVLTQSPATLSLSPGERATLSCRASESVEFYGTTLVQWYQQKPGQPPRLLIYGASNVESGIPARFSGSGSGTDFTLTISSLEPEDFAVYYCQQIRKVPWTFGQGTKVEIKR
Turning to B3, in assay [3], the Kd is < 0.001 nM, the koff was < 1e-07 s⁻¹ and the kon came out at 292000 M⁻¹ s⁻¹. In assay [4], this molecule registered a Kd of 0.00208 nM, a koff of 1.33e-07 s⁻¹ and a kon of 63900 M⁻¹ s⁻¹. Besides, the “IC50 (read off the curve)” value in assay [9] is ~0.1 µg/mL.

B4: humanized anti-human PD-L1 antibody Hum-7 (antibody, human IgG1, kappa, V domains shown)
VH: EVQLVESGGGLVQPGGSLRLSCAASGFTFGGFGMHWVRQAPGKGLEWVSYITGDSSTIYYADRVRGRFTISRDNAKNSLYLQMNSLRAEDTAVYYCVRGPPGTWAYWGQGTLVTVSS
VL: EIVLTQSPATLSLSPGERATLSCRASESVEFYGTTLVQWYQQKPGQAPRLLIYGASNVESGIPARFSGSGSGTDFTLTISSLEPEDFAVYFCQQIRKVPWTFGQGTKVEIKR
With B4, in assay [3], the Kd is < 0.001 nM, the koff amounted to 1.28e-07 s⁻¹ and the kon stood at 302000 M⁻¹ s⁻¹. In [4], the Kd is ≤ 0.0011 nM, the koff was < 1e-07 s⁻¹ and the kon turned out to be 73100 M⁻¹ s⁻¹. The “IC50 (read off the curve)” value in assay [9] was ~0.1 µg/mL.

B5: chimeric anti-human PD-L1 antibody Mab 3-14 (antibody, human IgG1, kappa, V domains shown)
VH: QVQLQQSGAELVKPGTSVKLSCKASGYTFSMYYMFWVKQRPGQGLEWIGQINPSNGRTNFNEKFKSKATLTVDKSSTTAYMQLSSLTSEDSAVYYCTREISYDEFAYWGQGTLVTVSA
VL: DVVMTQTPLSLPVSLGDQASISCRSSQSLVHSNGNTYLHWYLQKPGQSPKLLIYRVSNRFSGVPDRFSGSGSGTDFTLKISRVEAEDLGIYFCSQSAHLPYTFGGGTKLEIKR
notes: Mouse variable domains on human IgG1 / kappa constant regions
In assay [2], B5 showed a Kd of 0.124 nM, a koff of 4.05e-05 s⁻¹ and a kon of 327000 M⁻¹ s⁻¹. In addition, the “IC50 (read off the curve)” value in assay [5] was ~0.2 µg/mL.

B6: chimeric anti-human PD-L1 antibody Mab 3-18 (antibody, human IgG1, kappa, V domains shown)
VH: EVHLQESGPSLVKPSQTLSLTCSVTGDSITSGYWNWIRQFPGNKLEYMGYVSYSGSTYYNPSLKSRISITRDTSKNQYYLQLSSVTTEDTATYYCANYYGDNWPFPLDYWGQGTSVIVSS
VL: DIVMTQAAPSVPVTPGESVSISCRSNKSLLHSNGNTYLYWFLQRPGQSPQLLIYRMSNLASGVPDRFSGSGSGTAFTLTISRVEAEDVGVYYCMQHLEYPFTFGGGTKLEIER
notes: as for B5
As for B6, in assay [2], the affinity, expressed as Kd, was 1.16 nM; the koff was found to be 0.000408 s⁻¹; the kon was determined as 351000 M⁻¹ s⁻¹. Moreover, the “IC50 (read off the curve)” value in assay [5] was ~0.2 µg/mL.

B7: chimeric anti-human PD-L1 antibody Mab 3-17 (antibody, human IgG1, kappa, V domains shown)
VH: EVHLQESGPSLVKPSQTLSLTCSVTGDSITSGYWNWIRQFPGNKLEYMGYVSYSGSTYYNPSLKSRISITRDTSKNQYYLQLSSVTTEDTATYYCANYYGDNWPFPLDYWGQGTSVIVSS
VL: DIVMTQSPATLSVTPGDRVSLSCRASQSINGNLHWFQQKSHESPRLLIKYASQSISGIPSRFSGSGSGSDFTLRINSVEPEDVGVYYCQNGHGFPYTFGGGTKLEIKR
notes: as for B5
In assay [2], B7 showed a Kd of 1.5 nM, a koff of 0.000626 s⁻¹ and a kon of 417000 M⁻¹ s⁻¹. The “IC50 (read off the curve)” value in assay [5] is ~0.2 µg/mL.

B8: chimeric anti-human PD-L1 antibody Mab 1-01 (antibody, human IgG1, kappa, V domains shown)
VH: EVQLQQSGPELVKPGASVKMSCKASGYSFSGYFLNWVKQSHGKSLEWIGRINPSNDDTVYSQKFKDRATLSLDRSSGTVHMELRSLTSEDSAVYYCARFGHASWYFDVWGAGTTVTVSS
VL: QIVLTQSPAIMSASPGEKVTMTCSARSSVIYMSWYQQKPGSSPRLLIYDTSHLASGVPVRFSGSGSGTFYSLIISRVEAEDAATYYCQQWSTYPLTFGAGTRLELNR
notes: as for B5
B8 showed a Kd in [2] of 13 nM.

B9: chimeric anti-human PD-L1 antibody Mab 1-02 (antibody, human IgG1, kappa, V domains shown)
VH: EVQLQQSGPELVKPGASVKMSCKASGYSFSGYFLNWVKQSHGKSLEWIGRINPSNDDTVYSQKFKDRATLSLDRSSGTVHMELRSLTSEDSAVYYCARFGHASWYLDVWGAGTTVTVSS
VL: QIVLTQSPAIMSASPGEKVTMTCSARSSIIYMSWYQQKTGSSPRLLIYDTSHLASGVPVRFSGSGSGTFFSLIISRMEAEDAATYYCQQWSTYPLTFGAGTRLELKR
notes: as for B5
B9 returned a Kd in assay [2] of 16 nM.

B10: chimeric anti-human PD-L1 antibody Mab 2-04 (antibody, human IgG1, kappa, V domains shown)
VH: QVQLQQSGAELARPGASVKMSCKASGYTFTDYAMHWIKQRPGQGLEWIGFIIPSGDHTDYNQNFKDRATLTADKSSNTAYMQLTSLTPDDSAVYFCARGHGFHLYVMDYWGQGTSVTVSS
VL: DIVMTQSPATLSVTPGDGVSLSCRASQSIADYLHWYQQKSHESPRLLIKYASQSISGIPSRFSGSGSGSDFTLSISSVEPEDVGVYFCQNGHSFPPTFGTGTKLELKR
notes: as for B5
In assay [2], B10 registered a Kd of 0.279 nM, a koff of 0.000241 s⁻¹ and a kon of 864000 M⁻¹ s⁻¹. Moreover, in [10], the “IC50 (read off the curve)” value is ~0.3 µg/mL.
